Measured values reported in publication PMC2734569, “Functional mapping of the fission yeast DNA polymerase δ B-subunit Cdc1 by site-directed and random pentapeptide insertion mutagenesis” (BMC Molecular Biology, 2009).

How the values were obtained:
Experiment in all cases: two-hybrid; LexA-Cdc1 bait (pBTM116 or pBTM116BN) with Gal4-Pol3 prey and co-expressed c-myc-tagged Cdc27 (pAA-Cdc27) in S. cerevisiae CTY10-5d; ONPG liquid culture beta-galactosidase assay, mean of triplicates, as percent of wild-type Cdc1
Settings in all cases: partners not purified
Cdc1-J7 = target: T1, Cdc1-J7 (Schizosaccharomyces pombe, UniProt P87324 1-462, Met-GlyValProLeuMet-Glu)
T1 construct: Cdc1, S. pombe, with a pentapeptide inserted after residue 393; source: yeast two-hybrid fusion, in S. cerevisiae CTY10-5d
T1 sequence (looked up): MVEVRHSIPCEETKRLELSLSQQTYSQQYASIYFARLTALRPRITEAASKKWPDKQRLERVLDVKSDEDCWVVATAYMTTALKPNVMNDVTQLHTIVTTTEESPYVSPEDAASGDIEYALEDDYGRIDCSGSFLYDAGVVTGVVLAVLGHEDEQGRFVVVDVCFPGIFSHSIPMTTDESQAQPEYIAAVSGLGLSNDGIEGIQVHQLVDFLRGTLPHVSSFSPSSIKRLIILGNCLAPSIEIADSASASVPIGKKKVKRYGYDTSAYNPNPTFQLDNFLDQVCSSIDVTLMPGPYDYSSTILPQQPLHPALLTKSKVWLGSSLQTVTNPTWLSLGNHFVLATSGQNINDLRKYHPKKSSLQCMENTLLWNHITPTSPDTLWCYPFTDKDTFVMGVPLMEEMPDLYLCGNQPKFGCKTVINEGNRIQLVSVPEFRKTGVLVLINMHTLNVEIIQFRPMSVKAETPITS

Cdc1-J21 = target: T2, Cdc1-J21 (Schizosaccharomyces pombe, UniProt P87324 1-462, Leu-GlyValProGlnLeu-Asp)
T2 construct: Cdc1, S. pombe, with a pentapeptide inserted after residue 275; source: yeast two-hybrid fusion, in S. cerevisiae CTY10-5d
T2 sequence (looked up): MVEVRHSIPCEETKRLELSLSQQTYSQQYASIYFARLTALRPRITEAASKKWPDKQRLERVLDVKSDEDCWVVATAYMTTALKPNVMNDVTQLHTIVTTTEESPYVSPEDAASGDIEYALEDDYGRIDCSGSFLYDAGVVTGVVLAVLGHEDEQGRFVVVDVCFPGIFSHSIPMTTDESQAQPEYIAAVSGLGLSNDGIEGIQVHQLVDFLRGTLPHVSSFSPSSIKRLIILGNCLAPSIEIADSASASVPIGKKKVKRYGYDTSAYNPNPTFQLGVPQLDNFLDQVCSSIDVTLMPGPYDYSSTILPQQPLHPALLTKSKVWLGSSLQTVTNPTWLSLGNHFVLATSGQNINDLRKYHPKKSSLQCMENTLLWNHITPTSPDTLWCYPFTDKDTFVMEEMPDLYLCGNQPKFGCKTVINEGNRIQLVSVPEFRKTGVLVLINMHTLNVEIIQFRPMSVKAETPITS

Cdc1-A9 = target: T3, Cdc1-A9 (Schizosaccharomyces pombe, UniProt P87324 1-462, Pro292Ala | Gly293Ala)
T3 construct: Cdc1, S. pombe, double point mutant (A1 and A2 combined); source: yeast two-hybrid fusion, in S. cerevisiae CTY10-5d
T3 sequence (looked up): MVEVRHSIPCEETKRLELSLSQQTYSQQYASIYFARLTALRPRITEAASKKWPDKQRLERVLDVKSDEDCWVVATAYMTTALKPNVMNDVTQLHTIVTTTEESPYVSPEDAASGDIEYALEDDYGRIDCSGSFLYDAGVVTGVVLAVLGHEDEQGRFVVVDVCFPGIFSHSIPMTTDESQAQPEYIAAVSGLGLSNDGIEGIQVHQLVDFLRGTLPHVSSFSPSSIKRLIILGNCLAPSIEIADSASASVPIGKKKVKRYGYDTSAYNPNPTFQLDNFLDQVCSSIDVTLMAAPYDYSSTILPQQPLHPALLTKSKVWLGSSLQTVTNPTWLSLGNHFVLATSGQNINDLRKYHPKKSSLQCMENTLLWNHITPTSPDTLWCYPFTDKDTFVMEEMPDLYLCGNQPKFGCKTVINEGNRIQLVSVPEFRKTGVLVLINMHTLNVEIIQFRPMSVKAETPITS

Cdc1-J8 = target: T4, Cdc1-J8 (Schizosaccharomyces pombe, UniProt P87324 1-462, Lys-GlyValProLeuLys-Pro)
T4 construct: Cdc1, S. pombe, with a pentapeptide inserted after residue 83; also called J19; source: yeast two-hybrid fusion, in S. cerevisiae CTY10-5d
T4 sequence (looked up): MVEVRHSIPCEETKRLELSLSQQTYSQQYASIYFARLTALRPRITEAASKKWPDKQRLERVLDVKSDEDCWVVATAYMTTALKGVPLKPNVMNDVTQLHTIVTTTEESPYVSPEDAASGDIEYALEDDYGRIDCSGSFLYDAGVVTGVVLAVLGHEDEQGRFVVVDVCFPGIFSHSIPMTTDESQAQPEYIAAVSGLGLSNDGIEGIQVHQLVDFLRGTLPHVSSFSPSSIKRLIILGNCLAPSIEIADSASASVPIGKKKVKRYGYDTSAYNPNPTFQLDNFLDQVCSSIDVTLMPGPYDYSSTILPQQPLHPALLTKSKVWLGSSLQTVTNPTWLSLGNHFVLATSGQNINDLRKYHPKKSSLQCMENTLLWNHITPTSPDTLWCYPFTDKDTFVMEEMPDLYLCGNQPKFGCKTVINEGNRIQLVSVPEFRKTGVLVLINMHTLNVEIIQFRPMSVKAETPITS

two-hybrid beta-galactosidase activity, % of wild-type Cdc1 (Cdc1-J7): < 1%
two-hybrid beta-galactosidase activity, % of wild-type Cdc1 (Cdc1-J21): < 1%
two-hybrid beta-galactosidase activity, % of wild-type Cdc1 (Cdc1-A9): < 1%
two-hybrid beta-galactosidase activity, % of wild-type Cdc1 (Cdc1-J8): < 1%
B1: Pol3 (fission yeast DNA polymerase delta catalytic subunit) (natural protein, Schizosaccharomyces pombe, UniProt P30316 1-1086, looked up)
chain: MTDRSSNEGVVLNKENYPFPRRNGSIHGEITDVKRRRLSERNGYGDKKGSSSKEKTSSFEDELAEYASQLDQDEIKSSKDQQWQRPALPAINPEKDDIYFQQIDSEEFTEGSVPSIRLFGVTDNGNSILVHVVGFLPYFYVKAPVGFRPEMLERFTQDLDATCNGGVIDHCIIEMKENLYGFQGNEKSPFIKIFTTNPRILSRARNVFERGEFNFEELFPVGVGVTTFESNTQYLLRFMIDCDVVGMNWIHLPASKYQFRYQNRVSNCQIEAWINYKDLISLPAEGQWSKMAPLRIMSFDIECAGRKGVFPDPSIDPVIQIASIVTQYGDSTPFVRNVFCVDTCSQIVGTQVYEFQNQAEMLSSWSKFVRDVDPDVLIGYNICNFDIPYLLDRAKSLRIHNFPLLGRIHNFFSVAKETTFSSKAYGTRESKTTSIPGRLQLDMLQVMQRDFKLRSYSLNAVCSQFLGEQKEDVHYSIITDLQNGTADSRRRLAIYCLKDAYLPQRLMDKLMCFVNYTEMARVTGVPFNFLLARGQQIKVISQLFRKALQHDLVVPNIRVNGTDEQYEGATVIEPIKGYYDTPIATLDFSSLYPSIMQAHNLCYTTLLDSNTAELLKLKQDVDYSVTPNGDYFVKPHVRKGLLPIILADLLNARKKAKADLKKETDPFKKAVLDGRQLALKVSANSVYGFTGATNGRLPCLAISSSVTSYGRQMIEKTKDVVEKRYRIENGYSHDAVVIYGDTDSVMVKFGVKTLPEAMKLGEEAANYVSDQFPNPIKLEFEKVYFPYLLISKKRYAGLFWTRTDTYDKMDSKGIETVRRDNCPLVSYVIDTALRKMLIDQDVEGAQLFTKKVISDLLQNKIDMSQLVITKALSKTDYAAKMAHVELAERMRKRDAGSAPAIGDRVAYVIIKGAQGDQFYMRSEDPIYVLENNIPIDAKYYLENQLSKPLLRIFEPILGEKASSLLHGDHTRTISMAAPSVGGIMKFAVKVETCLGCKAPIKKGKTALCENCLNRSAELYQRQVAQVNDLEVRFARLWTQCQRCQGSMHQDVICTSRDCPIFYMRIAEHKKLQQSVDLLKRFDEMSW
notes: DNA polymerase delta catalytic subunit Pol3, S. pombe; prey plasmid named pACT-Pol3 in the results and pGAD2F-Pol3 in the methods; also called Gal4-Pol3; pACT-Pol3; source: yeast two-hybrid fusion, in S. cerevisiae CTY10-5d
